Among the data in paper PMC12217528, “Structural basis of topoisomerase targeting by delafloxacin” (Nature Communications, 2025) are stoichiometry N values, retold here.

One may read the stoichiometry N as a count of units in the complex or per binding partner.

This assay deals with ParE30-ParC55 fusion protein (fused ParE-ParC cleavage core of S. pneumoniae topo IV) (Streptococcus pneumoniae). In words: crystal structure; ParE30-ParC55 fusion protein (4.5 mg/ml) mixed with 18-mer V-site or E-site duplex DNA at 1:1.2 molar ratio, 2 mM delafloxacin, 10 mM MgCl2; sitting-drop vapour diffusion, 50 mM sodium cacodylate, 62.5 mM KCl, 7.5 mM MgCl2, 2.5% Tacsimate, 5.5–7% isopropanol, pH 6.5, 301 K; V18 with PEGylated graphene nucleant 2.0 Å, V18 and E18 without 2.4 Å.

“ParE30-ParC55 fusion protein (fused ParE-ParC cleavage core of S. pneumoniae topo IV) (enzyme)”: the stoichiometry N was determined as 2.
